Assay [1] addresses CdiI^Nlact immunity protein from Neisseria lactamica ATCC 23970, His6-tagged (Neisseria lactamica ATCC 23970). Nature of the assay: BLI.
Assay [2] addresses CdiIo11^EC869 immunity protein from Escherichia coli EC869, His6-tagged (Escherichia coli EC869). Nature of the assay: BLI.

Bounds are passed on as bounds.

By Kd is commonly meant the constant that tells how readily two partners part at equilibrium. Read a high Kd as a looser complex.

In assay [1], “CdiA-CTo11^EC869, orphan-11 CdiA-CT toxin from Escherichia coli EC869 (domain or fragment)” came in with a Kd of 82 µM.
For “CdiA-CTo11^EC869/Δβ4β5, CdiA-CTo11^EC869 with the β-hairpin (Lys242–Thr252) replaced by a Gly-Ser-Gly linker (domain or fragment)”, in assay [2], the Kd was over 300 µM.

The values above are taken from article PMC4658667.
